Literature values as cited in patent US11937625B2, “Oral administration formulation of blueberry extract as a coadjuvant for preserving the health of human precorneal film” (CENTRO DE RETINA MEDICA Y QUIRURGICA, S.C., priority 2017, dated 2024).

Legend:
[1] = day 60; oral supplement; post-cataract surgery patients; control group 7.86 (±0.86) seconds
pepsin = settings: in mice; Nojima et al (2008)

Molecule | fluorescein break-up time [1] | resistance to pepsin proteolysis (pepsin)
lactoferrin (protein, UniProt P02788 20-710, looked up) Lactotransferrin: GRRRSVQWCAVSQPEATKCFQWQRNMRKVRGPPVSCIKRDSPIQCIQAIAENRADAVTLDGGFIYEAGLAPYKLRPVAAEVYGTERQPRTHYYAVAVVKKGGSFQLNELQGLKSCHTGLRRTAGWNVPIGTLRPFLNWTGPPEPIEAAVARFFSASCVPGADKGQFPNLCRLCAGTGENKCAFSSQEPYFSYSGAFKCLRDGAGDVAFIRESTVFEDLSDEAERDEYELLCPDNTRKPVDKFKDCHLARVPSHAVVARSVNGKEDAIWNLLRQAQEKFGKDKSPKFQLFGSPSGQKDLLFKDSAIGFSRVPPRIDSGLYLGSGYFTAIQNLRKSEEEVAARRARVVWCAVGEQELRKCNQWSGLSEGSVTCSSASTTEDCIALVLKGEADAMSLDGGYVYTAGKCGLVPVLAENYKSQQSSDPDPNCVDRPVEGYLAVAVVRRSDTSLTWNSVKGKKSCHTAVDRTAGWNIPMGLLFNQTGSCKFDEYFSQSCAPGSDPRSNLCALCIGDEQGENKCVPNSNERYYGYTGAFRCLAENAGDVAFVKDVTVLQNTDGNNNEAWAKDLKLADFALLCLDGKRKPVTEARSCHLAMAPNHAVVSRMDKVERLKQVLLHQQAKFGRNGSDCPDKFCLFQSETKNLLFNDNTECLARLHGKTTYEKYLGPQYVAGITNLKKCSTSPLLEACEFLRK | 13.9 (±0.99) seconds | 
mono-PEGylated lactoferrin: lactoferrin with covalent attachment of polyethylene glycol (PEG), synthesized by Nojima et al (2008) (conjugate, UniProt P02788 20-710, looked up, mono-PEGylated) Lactotransferrin: GRRRSVQWCAVSQPEATKCFQWQRNMRKVRGPPVSCIKRDSPIQCIQAIAENRADAVTLDGGFIYEAGLAPYKLRPVAAEVYGTERQPRTHYYAVAVVKKGGSFQLNELQGLKSCHTGLRRTAGWNVPIGTLRPFLNWTGPPEPIEAAVARFFSASCVPGADKGQFPNLCRLCAGTGENKCAFSSQEPYFSYSGAFKCLRDGAGDVAFIRESTVFEDLSDEAERDEYELLCPDNTRKPVDKFKDCHLARVPSHAVVARSVNGKEDAIWNLLRQAQEKFGKDKSPKFQLFGSPSGQKDLLFKDSAIGFSRVPPRIDSGLYLGSGYFTAIQNLRKSEEEVAARRARVVWCAVGEQELRKCNQWSGLSEGSVTCSSASTTEDCIALVLKGEADAMSLDGGYVYTAGKCGLVPVLAENYKSQQSSDPDPNCVDRPVEGYLAVAVVRRSDTSLTWNSVKGKKSCHTAVDRTAGWNIPMGLLFNQTGSCKFDEYFSQSCAPGSDPRSNLCALCIGDEQGENKCVPNSNERYYGYTGAFRCLAENAGDVAFVKDVTVLQNTDGNNNEAWAKDLKLADFALLCLDGKRKPVTEARSCHLAMAPNHAVVSRMDKVERLKQVLLHQQAKFGRNGSDCPDKFCLFQSETKNLLFNDNTECLARLHGKTTYEKYLGPQYVAGITNLKKCSTSPLLEACEFLRK |  | greater resistance
